Data from patent US7732178B2, “Laccase enzymes and their uses” (AB Enzymes Oy, priority 2004, dated 2010).
Entries after “also recorded” stand apart in the source; their conditions may differ.

Key:
[1] = Specific activity towards ABTS; assay type: biochemical; settings: 25 mM succinate buffer pH 4.5, 25° C.
Description: The activity assay was carried out in accordance with the method developed by Niku-Paavola et al. (1988). The sample was diluted with 0.025 M succinate buffer, pH 4.5. […] The activity is expressed as nano katals.
(§1) Specific activities of the purified T. arenaria and C. thermophilum laccases were determined towards different laccase substrates.

[2] = Specific activity towards di-methoxy-phenol (DMP); assay type: biochemical; settings: 25 mM MES buffer, pH 5.5
Description: as §1

[3] = Redox potential of T1 copper, photometric copper titration; assay type: physicochemical; settings: 0.1 M KH2PO4 (pH 6.0)
Description: The purified recombinant Thielavia and Chaetomium laccases were characterized in terms of pH optimum, thermal stability, and pI as described in Example 2. The molecular weight was determined by MALDI-TOF mass spectrometry on a Ultraflex™ time-of-flight instrument (BrukerDaltonics, Germany) as previously described (Palonen et al., 2003). The redox-potentials of the T1 coppers of for CtLcc, and TaLcc2 laccases were determined by photometric copper titration in 0.1 M KH2PO4 (pH 6.0) as described by Xu et al. (1996) using the redox titrant couple K3Fe(CN)6/K4Fe(CN)6. The redox potential of TaLcc1 was determined with a combined Pt—AgCl/KCl microelectrode at pH 5.0 according to Sigoillot et al (2004). The characterization results are collected to Table 14.

[4] = Isoelectric focusing (pI); assay type: physicochemical; settings: pH range 3-9
Procedure, shortened: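 Purified Thielavia arenaria and Chaetomium thermophilum laccases resolved by isoelectric focusing over pH 3-9. pI read from focused band position.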

[5] = Stain removal, tea soiling; design: key to Tea L* / Tea a* / Tea b*: CIE L*a*b* color coordinates from reflectance; settings: for Tea L* / Tea a* / Tea b*: 60 min, pH 6; for removal of tea soiling with the mediator: CtLcc1 at 60° C., TaLcc2 at 50° C.
Description: (§2) Laccases CtLcc1, TaLcc2, TaLcc4 and Denilite II Base (Example 7) were tested for their ability to remove stains. The following artificially soiled test cloths were used: grass soiling (Art.164, EMPA Testmaterialen, Germany), tea soiling (Art. 167, EMPA Testmaterialen, Germany). The fabric was cut in 5.8×5.8 cm swatches. Laccase treatments were performed in LP-2 Launder Ometer as follows. About 5 g of soiled fabrics were loaded into 1.2 liter containers containing 150 ml Mc Ilvaine's citrate phosphate buffer pH 6 and the containers were temperated. Enzyme with or without the mediator (methyl syringate, DeniLite II Assist, Novozymes) was added as laccase activity units (Example 7). Enzyme was dosed 200 nkat/g and the mediator 10 mg/g on the weight of fabric, except at 40° C. dosages of 20 nkat/g and 2 mg/g were also used. The Launder Ometer was run at 40, 50 or 60° C. and pH 6 for 60 min. After that the swatches were carefully rinsed under running water and in shake flasks containing warm water and dried in the air.
(§3) The stain removal effect was evaluated by measuring the colour as reflectance values using L*a*b* color space coordinates (Example 7). The colour of the swatches was measured before and after the laccase treatment.

[6] = Stain removal, grass soiling; design: key to Grass L* / Grass a* / Grass b*: CIE L*a*b* color coordinates from reflectance; settings: for Grass L* / Grass a* / Grass b*: 60 min, pH 6; for removal of grass soiling with the mediator: CtLcc1 at 60° C., TaLcc2 at 50° C.
Description: as §2, §3

Decolorization of dyes = assay: Decolorization of dyes; design: key to Decolorization of Remazol Brilliant blue, Time 30 min / Decolorization of Remazol Brilliant blue, Time 60 min: −: no visually detectable change; +: visually detectable fading of the colour; ++: considerable fading of the colour; +++: complete/almost complete decolorization; settings: for Decolorization of Remazol Brilliant blue, Time 30 min / Decolorization of Remazol Brilliant blue, Time 60 min: dye 5 mg/50 ml, enzyme 100 nkat/50 ml, 50° C., pH 6; for decolorization of Remazol Brilliant Blue: in the presence of the mediator
Description: The recombinant laccases CtLcc1, TaLcc2 and TaLcc4, derived from Trichoderma strains (Example 7) were tested for their ability to decolorize different dyes in the presence of the methyl syringate mediator (Example 7) or without it. The experiments were carried out in 100 ml shake flasks containing 50 ml of dye dissolved in citrate phosphate buffer pH 6. Dye concentration 5 mg/50 ml was used. Enzyme was dosed 100 nkat per 50 ml and the mediator 5 mg per 50 ml. Control samples contained only dye solution. The shake flasks were incubated at 50° C. for 30, 60 and 120 minutes. Samples of 3.5 ml were taken in test tubes for visual evaluation.

[7] = 40° C., enzyme 20 nkat/g + mediator 2 mg/g (Mediator only: 0 nkat/g)
[8] = 40° C., enzyme 200 nkat/g + mediator 10 mg/g (Mediator only: 0 nkat/g)
[9] = 40° C., enzyme 200 nkat/g, mediator 0 mg/g
[10] = 60° C., enzyme 200 nkat/g + mediator 10 mg/g (Mediator only: 0 nkat/g)
[11] = 60° C., enzyme 200 nkat/g, mediator 0 mg/g
[12] = 40° C., enzyme 200 nkat/g + mediator 10 mg/g (Mediator only: 0 nkat/g), RF5571
[13] = 40° C., enzyme 200 nkat/g + mediator 10 mg/g (Mediator only: 0 nkat/g), RF5573
[14] = 50° C., enzyme 200 nkat/g + mediator 10 mg/g (Mediator only: 0 nkat/g)

B1: CtLcc1: Chaetomium thermophilum ALKO 4265 laccase, SEQ ID NO: 47, produced in Trichoderma reesei (protein)
chain: MKFLTYATALLGALTAVVGAIPTRSGTKKKYIRDGPGPCHTPSNRACWAPGFDINTDYEVNTPNTGVTRNYTLTLTEEDNWTGPDGVVKEKIMLVNGKTLGPTIEANWGDWIEVKVINNLLTNGTSIHWHGIHQKGSNLHDGANGVTECPIPPNGGQRTYRFRAQQYGTSWYHSHFSAQYGNGIVGPIVIHGPASLPYDIDLGPFPLTDYYYKSADELVRHTQNNGPPFSDNVLFNGTGVHPQTGHGQYAKVTLTPGKRHRLRIINMSTENHFQVSLVGHQFTVIAADMVPVHSYTTDSLFLAVGQRYDVTIDASQTPGNYWFNVTFGGGFACGGSFNPNPAAIFHYEGAPDALPTDPGVPPRDHNCLDTLDLVPVVPRNVQVNQFVKKPENTLPVELSLGGTPLFVWKVNGSAIDVDWGNPVLQYVMDRNTSYRQADNIVEVNGVNQWTYWLIENDPNGAFSLPHPMHLHGHDFLIVGRSPDVPPGSNQRYNFDPATDIYRLRGQNPTRRDVAMLPAGGWLLLAFLTDNPGAWLFHCHIAWHVSGGLSVDFLERPNDLRNSILQHDKDEFNRVCNEWRTYWPNSPHPKIDSGLKHRWVEESEWLVR
modifications: Chaetomium thermophilum ALKO4265; (1)..(607) Deduced amino acid sequence of Chaetomium thermophilum ALKO4265 CtLcc1
[1]
  Specific activity on ABTS: 705 nkat/mg
[2]
  Specific activity on DMP: 290 nkat/mg
[3]
  E^0: 480 mV
[4]
  pI: 4.0-4.3
[5]; [7]
  Tea L*: 76.34
  Tea a*: 5.10
  Tea b*: 23.89
[5]; [8]
  Tea L*: 77.70
  Tea a*: 4.26
  Tea b*: 24.50
[5]; [9]
  Tea L*: 76.22
  Tea a*: 5.37
  Tea b*: 22.68
[5]; [10]
  Tea L*: 79.76
  Tea a*: 3.52
  Tea b*: 22.16
[5]; [11]
  Tea L*: 77.10
  Tea a*: 4.84
  Tea b*: 21.10
[5]
  removal of tea soiling with the mediator: effective
[6]; [7]
  Grass L*: 79.94
  Grass a*: −1.20
  Grass b*: 16.17
[6]; [8]
  Grass L*: 79.74
  Grass a*: 0.17
  Grass b*: 16.48
[6]; [9]
  Grass L*: 80.17
  Grass a*: −4.14
  Grass b*: 17.45
[6]; [10]
  Grass L*: 79.92
  Grass a*: −1.15
  Grass b*: 18.55
[6]; [11]
  Grass L*: 79.04
  Grass a*: −3.69
  Grass b*: 18.12
[6]
  removal of grass soiling with the mediator: effective
Decolorization of dyes; mediator 0 mg/50 ml
  Decolorization of Remazol Brilliant blue, Time 30 min: −
  Decolorization of Remazol Brilliant blue, Time 60 min: −
Decolorization of dyes; mediator 5 mg/50 ml
  Decolorization of Remazol Brilliant blue, Time 30 min: ++
  Decolorization of Remazol Brilliant blue, Time 60 min: +++
Decolorization of dyes
  decolorization of Remazol Brilliant Blue: very effectively; also recorded: to great extend or completely

B2: TaLcc2: Thielavia arenaria ALKO 4197 laccase, SEQ ID NO: 41, produced in Trichoderma reesei (protein)
chain: MLTETLKSRNMLQSILALLATALGSSAFAIPELPEVSLQPRQACENTATSRQCWGDLSIDTNYYEVLPSTGRPPQEYWLSVVEGPCAPDGYNRTCMTFNGTVPGPTLFADWGDELVIHVTNNMVNNGTAIHWHGIRMLNNTLNDGVPGVTQCAIAPGESMTYRFNVTQYGSTWYHSHFSLQYAEGLFGGMILRGPSTANWDEDLGVLFLQDWSHVEAFTRWHEAKAGFPPSLDGGLINGTNTFDCSTLSPTDPKCTGNGKKFETVFEPGKKYLIRLINVAIDGVFQFSIDGHSLTVIATDLVPIVPYTTDSVQITIGQRYDIIVEANATPGNYWMRADWVTACVTNDHPEHMTGIVRYDASSIDPPTSESNVTKTSSCLGEPNEKTIPHLSLDVTNIGGTNVEELSFDTTSGDYFQWTLNTSSLVLDWGNPTMARIFNGDAIFPTEYNVVAVNKTGTGPEWTVLVIQDQSNLPIAHPIHLHGHDFWVLAAEEGVFNGNISSFNTRNPARRDVATLPGRGYLAIAFQIDNPGTWLTHCHIAWHASQGLSLEFVESQSEIVTDEVSRGVFNDVCASWRAHDPLWEQEDSGI
modifications: Thielavia arenaria ALKO4197; (1)..(589) Deduced amino acid sequence of Thielavia arenaria ALKO4197 TaLacc2
[1]
  Specific activity on ABTS: 360 nkat/mg
[2]
  Specific activity on DMP: 75 nkat/mg
[3]
  E^0: 450 mV
[4]
  pI: 3.5
[5]; [7]
  Tea L*: 75.61
  Tea a*: 5.24
  Tea b*: 23.66
[5]; [12]
  Tea L*: 77.28
  Tea a*: 4.36
  Tea b*: 24.32
[5]; [13]
  Tea L*: 77.04
  Tea a*: 4.41
  Tea b*: 24.36
[5]; [9]
  Tea L*: 76.09
  Tea a*: 5.37
  Tea b*: 22.59
[5]; [14]
  Tea L*: 77.73
  Tea a*: 3.99
  Tea b*: 22.89
[5]
  removal of tea soiling with the mediator: effective
[6]; [7]
  Grass L*: 79.25
  Grass a*: −2.14
  Grass b*: 16.41
[6]; [12]
  Grass L*: 79.24
  Grass a*: −0.31
  Grass b*: 16.72
[6]; [13]
  Grass L*: 79.19
  Grass a*: −0.26
  Grass b*: 16.99
[6]; [9]
  Grass L*: 80.01
  Grass a*: −4.90
  Grass b*: 17.63
[6]; [14]
  Grass L*: 79.50
  Grass a*: −1.15
  Grass b*: 17.94
[6]
  removal of grass soiling with the mediator: effective
Decolorization of dyes; Table 24, mediator 0 mg/50 ml
  Decolorization of Remazol Brilliant blue, Time 30 min: −
  Decolorization of Remazol Brilliant blue, Time 60 min: −
Decolorization of dyes; Table 24, mediator 5 mg/50 ml
  Decolorization of Remazol Brilliant blue, Time 30 min: ++
  Decolorization of Remazol Brilliant blue, Time 60 min: +++
Decolorization of dyes
  decolorization of Remazol Brilliant Blue: very effectively; also recorded: to great extend or completely
